Measurements reported in the DeepSol protein solubility set.

Assay: soluble on expression in E. coli; label from the status in PepcDB or PDB records

Sequence	soluble on expression in E. coli
MGSDKIHHHHHHMSSIYGADLRTVGERIKGERKRLGLSQTAFANLAGVGKTTQINYEKGTRNPDTEYLAALDSAGVDVYYVLTGRKSSGGSSDVQAPVEEPLDGYSPVPMYDIEAAAGAGRLIEHENIESTLYFQTQALSAEGLDPAHLIGAKVRGDSMGSTLQDGDRVIVDCSQRTPDGVFLLRVGEEYRIKRVQRVAGGAWLLISDNHAYEKEMIKPDEMQDVEILGRCRVRIGRVS	not soluble
MKIQCDVCEKAPATVICCADEAALCPQCDIEIHAANKLASKHQRLHLNSLSTKFPRCDICQEKAAFIFCVEDRALLCRDCDESIHVANSRSANHQRFLATGIKVALTSTICSKEIEKNQPEPSNNQQKANQIPAKSTSQQQQQPSSATPLPWAVDDFFHFSDIESTDKKGQLDLGAGELDWFSDMGFFGDQINDKALPAAEVPELSVSHLGHVHSYKPMKSNVSHKKPRFETRYDDDDEEHFIVPDLG	not soluble
MAHHHHHHMHAVPKDDAEAPLSNTESRGRVALIDTSGYASDMNISAFVPQHAMKPYRVLAAMEIVRSLKIDAHCRTVVPPLVKVEELMAYHTDTYLANLGLHSCRSWLWNAETSKVFFSGDCPPVEGLMEHSIATASGTLMGAVLLNSGQVDVAVHWGGGMHHSKCGECSGFCYVNDIVLGILELLKCHDRVLYVDIDMHHGDGVDEAFCTSDRVFTLSLHKFGESFFPGTGHPRDVGYGRGRYYSMNLAVWDGITDFYYLGIFEHALHSIVRRYSPDAIVLQCGADSLAGDRLGLLNLSSFGHGQCVQAVRDLGIPMLALGGGGYTIRNVAKLWAYETSILTGHPLPPNTVLPVAEMPLSGWLFQDSPLLIVAQDRSNHVLPGLHCQRAYQMMTEQIDRHVPHIQPHPRLQKAFTAAEAADKQVEDGTTAVEDFK	not soluble
MAHHHHHHMSAAVQTLATVMATDMNYYAGDPTVLAADAASSRVEQILQSSRSDQLTARVAIHAQLREAFKNVDVQQRFKPFLSDGENIQMYVQDAKARARFFSQKQQELQHDILQSEEQRQLKEAHGELAAWERENAVLLRHQMFMTYMPSQALLLESAATVALYRQYATLEEGQYTSDSSDGEVPMMLKKMGGKTYFTQSEQPFEVDTHNKMFSQQVLQNKRVEYEQMREKAAQLRQALEECPTVKRLEAFVELRNDIFVAYGIDRLASLCSRKDKEMGNPNEGGVDASLHGLPADDEYVSSSRVAQYSLPKIVDAAYKNYLNILSMDDWDAMMKHTGSNARAVMEKIKPMKDKETFRYWFLSCITADVPQMGPNKIVGQKATTLEDYKKFWAPQKSNYVPSLTSNRSIFGSKVADRRGLPHFLILSPVTYRYRENNDPNAVKTGTMDLMVYDATNEKVLLMLTNSSDERRPRAAFLKAQEERYRFAAVVRSAITYENQYHGFECEGTVAEYFFDAQEGPEENYYCIMAPHRVYSKQPNKVQVPMKALRPFTSCPPRYFVLGSNWGVSAGTRRNPYPASYAHVELNENAVGLSNVIPDGFISSKVLPQLLSHAEGVQKLEEEMKRQQRAELERPQLSPRALTRASRGGAATPRPSTAPPSPENNAADILADENMRGPGEEEDPLSPLVPNEVLRPVRDQLLKQRRSWQSPAYIAFRARDSDLRRLPAVKDGHLRTPLNVFNDLMREKHGEDAPPASAPSSARRSNGPPSSRTASVACT	not soluble
MGSDKIHHHHHHMASYHLNAKMAQDIVSRTMQIIDSNINVMDARGKIIGSGDQERLGELHEGALLALSQGRVVDIDDAVARHLHGVRPGINLPLRIDGEIVGVIGLTGNPSQLRQYGELVCMTAEMMLEQARLLHMLAQDSRLREELVLNLVRTDDLSPALMEWAQRLGIDMNKPRVAAVIEVDSGQLGVDSAMAELQQLQTLLTTPERDNLIAIVSLTEMVVLKPALNSHGRWDAEEHRRRVDTLMSRMAESSRLRVRLALGNYFAGPGSIARSYRTARTTMSVGKQRMPAQRCYYYQDLMLPVLLDSLRGGWQANELVRPLSKLKAMDGNGLLRRTLGAWFRNNVQPGATAKALFIHRNTLEYRLNRISELTGLDLGNFDDRLLLYVALQLDEEE	not soluble
IPRFGVKTEQEDVLAKELEDVNKWGLHVFRIAELSGNRPLTVIMHTIFQERDLLKTFKIPVDTLITYLMTLEDHYHADVAYHNNIHAADVVQSTHVLLSTPALEAVFTDLEILAAIFASAIHDVDHPGVSNQFLINTNSELALMYNDSSVLENHHLAVGFKLLQEENCDIFQNLTKKQRQSLRKMVIDIVLATDMSKHMNLLADLKTMVETKKVTSSGVLLLDNYSDRIQVLQNMVHCADLSNPTKPLQLYRQWTDRIMEEFFRQGDRERERGMEISPMCDKHNASVEKSQVGFIDYIVHPLWETWADLVHPDAQDILDTLEDNREWYQSTIPQSPSPAPDDPEEGRQGQTEKFQFELTLE	soluble
MTLTELRYIVAVAQERHFGRAARRCFVSQPTLSIAIKKLEEELAVSLFDRSSNDIITTEAGERIVAQARKVLEEAELIRHLANEEQNELEGAFKLGLIFTVAPYLLPKLIVSLRRTAPKMPLMLEENYTHTLTESLKRGDVDAIIVAEPFQEPGIVTEPLYDEPFFVIVPKGHSFEELDAVSPRMLGEEQVLLLTEGNCMRDQVLSSCSELAAKQRIQGLTNTLQGSSINTIRHMVASGLAISVLPATALTENDHMLFSIIPFEGTPPSRRVVLAYRRNFVRPKALSAMKAAIMQSQLHGVSFICD	soluble
MDLHSLCVDSHALRRDGMRFLHTADWQLGMTRHFLAGDAQPRYSAARRDAVAGLKALAADVGAEFVVVAGDVFEHNQLAPQIVGQSLEAMRVIGLPVYLLPGNHDPLDASSVYTSTLFRAERPDNVVVLDRAGVHEVRPGVQIVAAPWRSKAPTTDPVAEVLAGLPTDAAIRLLVAHGGVDALDPDHDKPSLIRLAALDDALTRQAIHYVALGDKHSLTQVGSSGRVWYSGAPEVTNFDDVEPDPGHVLVVDIDESDPRHPVTVDARRIGRWRFVTLHHQVDTSRDIADLDLNLDLMTDKDRTVVRLALTGSLTVTDRAALDTCLDKYARLFAWLGLWERHTDLAVIPVDAEFTDLGIGGFAAAAVDELVATARGGDDESAVDAQAALALLLRLADRGAALEHHHHHH	soluble
MLGIDLGSNTLRAVQMDEKLNKLKEYEFVIGAAKNLNQSGEISKEAIQRLKNTLSILAKEQDLSKARAVATAAFRKASNTNEIFAHLKKEFGIDFKLIDAKSEAKISVLGMQSGLRRLKIWGEFAYCDLGGASCELSFGKSFKSFDFGIISFYEKNYHSYYKSCISYKKLIKKYPKFIINIKDKKLKIHFLIANPYLKHLAFRAFDEVAMIKKELRSLGAKTVVLNSGVPTTLSALKQNISYEKYEATKVNGKKLCHKDFLNYAIKLFHMEEKKAIKEVGTMRKNYLSAGCLLFYALFDKHKLLVIDEGLREGVCLASMKNIKF	not soluble
MGSDKIHHHHHHMKVQFLGAARTVTGSCYVVESGGVRFAVDCGMHQGNHEIEKRNYETDVYSPETIDFFLITHAHIDHTGLLPRMVRDGFTGPVYCTEPTRDLLEIMLQDSANIQEMEAEWQTRKQKRKGRKPVDPLYTFADAARVSRFFENVEYNRPFSPVEGVTVTYKDAGHILGSAFLEIEVCEHGRCSRLIFSGDLGKPNSLIVRDPEAAAAADYLFVESTYGDRNHKDESNSRQELAEAIAYSYRQGEKVIIPAFAVERTQEVLYTLFLLQKEGRMPVDMPIFLDSPLAIRATEIFRKHPRFFDEEMQKLLLSGEDPFAMPSLRLTTKTQESQAINNYTGPAVIISASGMCNAGRIKHHLRHNIWRPGASIVFVGYQAVGTPGRRIVDGARSIRLFGEEIAIQAKVFTIGGFSGHAGQSQILDWVGKFATKEMKVFLVHGEEKAQQALKAILEEKYELSVHSPGYLEEIELEPGEAVVTTGDPQRYQPQLNWDFLLSETEARMMQLRARKGDIEHADWAQQVEIRDRLLELNNEMLGILSEL	not soluble
LAELFEKAAAHLQGLIQVASREQLLYLYARYKQVKVGNCNTPKPSFFDFEGKQKWEAWKALGDSSPSQAMQEYIAVVKKLDPGWNPQIPEKKGKEA	soluble
MQKIKVQDAIGSVLMHDLTQIIPGKTKDARFRKGHVIKEEDIPTLLSMGKEHIFVWDQTPGLIHEDEAAERLAKAVAGPGLSFSETKEGKVNLIAEEDGLIYASEEGIYALNSLEYIILATLHNHRPVKKGQKIAGTRVVPLMIDENVVIEAEGIARRFEEPILQIRPLQSKKVGVVTTGSEVYHGRIQDKFGPVLQRKVAEWGSVLLGQTFADDDVEMIQERIREHIEQGAEMVLVTGGMSVDPDDLTPTAIKGLGGRVDHLWHSCSSRSHAVAGLPGLEHHHHHH	not soluble
MGSDKIHHHHHHMKIAIITFFDNGNYGSELQTLAMNDYLNAKGHVTVFCKVKSSNKIIRAIELLYDKVLLKWYKITDKEKRQYLTDRAKNLSSQRNIPPKLRQYIHSFVNSHISFGCISRLLLFRKERFDAYICGSDQIWSALKMPLLPLNFLYGIDKKKKIAYAPSIGLDNPPYYYIREVEKYVKDFIYLSVREEDAKNVLKKQYGIEAMQVLDPTLLQGKGFWDSLLAIESKQVPTKPYVFCYFLGKLNEDIVTCINRIANGKCVMVLPYEEDCDLIKNGKYELADPLDFVNLIKHADYVLTDSFHGSIFSILYDKQFVVTKRTHVRRVSQTSRITSLLKIFNLQSQYCSGVDEIINALQNNIDYSFTHIQLEEEQRKSRLFLDGALNEIEKNIKS	not soluble
NAFVSIQTSTIPKTAFVARDFVPLQNRGNQWVAPVRASEDDPALAKSYLDFAIIEVPLFLHNQMDKQIYDHFMRPAINTYERLGNSVGIFAYQPMASFKRDSYFALGYPQVESNIAALNLNQTEVKPTRPEDVAQVTFKEPWSVDHHREIPTLTTNQLTTIKTKHFSGSKLSWPFDHTKSF	not soluble
MSLKPRVAVIGSGSIGLLLYAYLKLANWPALLVTNRPEQADHLNKEGLTFVAKSGEHQPISVTATPLSSFSAEEAEVGFITVKSFAVKALLPQLQRKKWDGLVFFQNGMTHLEILRQIPARAICCGIVEIGAKRESDVRVQHTGDGAIWIGDMVGDSKNFDPMWACLHNAGLKAQKVTNWQDKMERKLIANAAINPLTGLFRVKNGALIENQLFSLLLKELVKEACVTLGREREVDEHLAYTRAICDKTANNLSSMYMDLTHHRRTEIESITGYLIKEAAKKGIEIPNTSFVYHAVMGMDEEGRKVREGHHHHHH	soluble
MHATDQTFQILLSQLLEKVEDRCPECGSEQYVWQQKNKDGTERCAPTCWSCGYKMLKKHEQQANQQRSQESFMARTQKFFHQGSLIADDALRQCRLTNYQTTELETRQAKERALAAVSAIVEGKPIHVIFSGKPGVGKSHLAISILVEVLERSAYQKYCLFVSYSELLEKLKMSMNESAKSQAKAQAYITRMKKADVLVLDDLGAELGIKNKVSTDFNNDILNRILEARQNKATIFTTNFSGKQLVEAYGTRIISRLMKHANGYVFQYKDTTDKRMRSVKLEHHHHHH	not soluble
MHHHHHHSSGRENLYFQGSTKGDINQYYTLENTIGRGSWGEVKIAVQKGTRIRRAAKKIPKYFVEDVDRFKQEIEIMKSLDHPNIIRLYETFEDNTDIYLVMELCTGGELFERVVHKRVFRESDAARIMKDVLSAVAYCHKLNVAHRDLKPENFLFLTDSPDSPLKLIDFGLAARFKPGKMMRTKVGTPYYVSPQVLEGLYGPECDEWSAGVMMYVLLCGYPPFSAPTDSEVMLKIREGTFTFPEKDWLNVSPQAESLIRRLLTKSPKQRITSLQALEHEWFEKQLSSSPRNLL	soluble
